# Numbering of substitutions follows the chain as printed.
# T1: human wild-type Sema3A of SEQ ID NO: 600, expressed by HEK293 cells (human, UniProt Q14563 22-771, limits assumed)
# T1 sequence: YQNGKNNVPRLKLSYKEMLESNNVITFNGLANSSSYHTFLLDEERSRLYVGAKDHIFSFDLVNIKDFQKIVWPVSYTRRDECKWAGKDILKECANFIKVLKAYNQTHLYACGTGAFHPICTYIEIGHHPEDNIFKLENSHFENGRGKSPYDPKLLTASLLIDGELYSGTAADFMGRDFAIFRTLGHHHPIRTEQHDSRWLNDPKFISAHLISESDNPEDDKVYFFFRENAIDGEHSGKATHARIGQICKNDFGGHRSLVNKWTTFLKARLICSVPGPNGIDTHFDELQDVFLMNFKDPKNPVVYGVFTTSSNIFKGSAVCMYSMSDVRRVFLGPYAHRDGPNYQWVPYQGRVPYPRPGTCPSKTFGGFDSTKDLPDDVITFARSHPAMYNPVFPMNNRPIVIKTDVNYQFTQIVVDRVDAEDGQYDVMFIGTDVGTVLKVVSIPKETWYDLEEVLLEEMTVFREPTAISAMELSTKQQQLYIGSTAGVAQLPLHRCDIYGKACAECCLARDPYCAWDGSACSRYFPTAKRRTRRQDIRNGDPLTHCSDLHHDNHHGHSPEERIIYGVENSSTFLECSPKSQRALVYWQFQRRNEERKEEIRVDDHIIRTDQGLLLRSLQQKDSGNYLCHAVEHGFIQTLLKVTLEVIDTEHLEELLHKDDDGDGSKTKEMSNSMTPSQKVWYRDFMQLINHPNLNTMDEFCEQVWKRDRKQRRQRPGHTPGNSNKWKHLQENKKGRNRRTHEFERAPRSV
# T2: Cyno Semaphorin3A-Sema Domain, TPP-19122 (cynomolgus (Macaca fascicularis), UniProt Q63548 21-569 (rat entry), limits assumed)
# T2 construct: produced inhouse
# T2 chain: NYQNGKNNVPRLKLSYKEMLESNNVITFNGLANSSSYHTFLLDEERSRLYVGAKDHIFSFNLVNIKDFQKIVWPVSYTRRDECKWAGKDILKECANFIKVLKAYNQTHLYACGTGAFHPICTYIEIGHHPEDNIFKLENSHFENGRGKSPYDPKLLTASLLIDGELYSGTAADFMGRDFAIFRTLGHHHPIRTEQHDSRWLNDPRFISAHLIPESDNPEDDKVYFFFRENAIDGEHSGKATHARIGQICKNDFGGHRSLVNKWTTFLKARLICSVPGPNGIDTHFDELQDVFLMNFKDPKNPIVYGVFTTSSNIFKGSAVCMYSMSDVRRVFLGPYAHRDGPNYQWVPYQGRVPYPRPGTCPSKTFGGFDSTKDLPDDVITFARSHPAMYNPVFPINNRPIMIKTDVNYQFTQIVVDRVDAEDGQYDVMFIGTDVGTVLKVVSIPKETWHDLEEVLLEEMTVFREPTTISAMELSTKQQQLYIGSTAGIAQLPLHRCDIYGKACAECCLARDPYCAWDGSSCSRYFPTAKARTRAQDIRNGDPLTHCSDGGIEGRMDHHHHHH
# T3: Rat Semaphorin3A-Sema Domain, TPP-19120 (rat, UniProt Q63548 21-569)
# T3 construct: produced inhouse
# T3 sequence: T2 chain with Q3A, I126V, E138Q, N139D, F296S, I444V, I489V
# B1: TPP-17755 (antibody, human IgG1, lambda, V domains shown)
# VH: EVQLLESGGGLVQTGGSLRLSCAASGFTFSDYAMSWVRQAPGKGLEWVSWIYYDSGSKYYADSVKGRFTISRDNSKNTLYLQMNSLRAEDTAVYYCAKLNGDFDYWGQGTLVTVSS
# VL: QSVLTQPPSASGTPGQRVTISCSGSSSNIGNNDVSWYQQLPGTAPKLLIYADSHRPSGVPDRFSGSKSGTSASLAISGLRSEDEADYYCGAWDSSLSGYVFGGGTKLTVLG
# notes: also called Samsung; Samsung Prior Art F11
# B2: TPP-23337 (antibody, human IgG4 S228P, lambda, V domains shown)
# VH: EVQLLESGGGLVQPGGSLRLSCAASGFTFSSYAMSWVRQAPGKGLEWVSAIGYGGDTYYADSVKGRFTISRDNSKNTLYLQMNSLRAEDTAVYYCARRDDYTSRDAFDYWGQGTLVTVSS
# VL: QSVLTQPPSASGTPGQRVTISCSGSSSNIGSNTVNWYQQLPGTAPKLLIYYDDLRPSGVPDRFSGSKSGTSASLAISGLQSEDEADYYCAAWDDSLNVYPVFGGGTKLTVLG
# B3: TPP-23298 (antibody, human IgG4 S228P, lambda, V domains shown)
# VH: B2 VH with S30Y, Y53T
# VL: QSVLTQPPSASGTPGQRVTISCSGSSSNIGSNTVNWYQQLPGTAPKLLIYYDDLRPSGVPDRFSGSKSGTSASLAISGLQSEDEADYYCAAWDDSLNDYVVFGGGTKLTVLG
# B4: TPP-23334 (antibody, human IgG4 S228P, lambda, V domains shown)
# VH: B2 VH
# VL: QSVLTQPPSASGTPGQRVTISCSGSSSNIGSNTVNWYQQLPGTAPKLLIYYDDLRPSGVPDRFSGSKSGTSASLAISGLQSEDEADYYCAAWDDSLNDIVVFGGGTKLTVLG
# B5: TPP-23374 (antibody, human IgG4 S228P, lambda, V domains shown)
# VH: B2 VH with S30Y
# VL: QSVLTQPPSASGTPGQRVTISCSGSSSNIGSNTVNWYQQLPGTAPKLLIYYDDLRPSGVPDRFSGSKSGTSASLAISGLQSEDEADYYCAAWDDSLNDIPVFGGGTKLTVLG
# B6: TPP-15370 (antibody, human IgG1, lambda, V domains shown)
# VH: B2 VH with A33G, S35H, Y53T, K64M, Y109V
# VL: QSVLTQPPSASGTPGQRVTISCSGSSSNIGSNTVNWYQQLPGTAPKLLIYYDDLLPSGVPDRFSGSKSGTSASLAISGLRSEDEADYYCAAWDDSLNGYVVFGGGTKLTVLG
# notes: human IgG1; also called IgG1, hit from panning; parental mAb
# B7: TPP-15374 (antibody, human IgG1, lambda, V domains shown)
# VH: EVQLLESGGGLVQPGGSLRLSCAASGFTFSSYEMNWVRQAPGKGLEWVSGISWNSGSIGYADSVKGRFTISRDNSKNTLYLQMNSLRAEDTAVYYCARSGYSSSWFDPDFDYWGQGTLVTVSS
# VL: QSVLTQPPSASGTPGQRVTISCTGSSSNIGAGYDVHWYQQLPGTAPKLLIYGNSNRPSGVPDRFSGSKSGTSASLAISGLRSEDEADYYCSSYAGSNPYVVFGGGTKLTVLG
# notes: as for B6
# B8: TPP-23340 (antibody, human IgG4 S228P, lambda, V domains shown)
# VH: B2 VH
# VL: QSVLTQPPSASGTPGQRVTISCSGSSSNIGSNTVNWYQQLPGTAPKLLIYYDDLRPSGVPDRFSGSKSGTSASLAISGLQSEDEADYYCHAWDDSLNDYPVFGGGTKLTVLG
# B9: TPP-23341 (antibody, human IgG4 S228P, lambda, V domains shown)
# VH: B2 VH
# VL: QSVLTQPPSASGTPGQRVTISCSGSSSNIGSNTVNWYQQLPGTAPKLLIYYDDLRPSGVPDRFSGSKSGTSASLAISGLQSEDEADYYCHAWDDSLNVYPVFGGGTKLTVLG
# B10: TPP-23373 (antibody, human IgG4 S228P, lambda, V domains shown)
# VH: B2 VH with S30Y
# VL: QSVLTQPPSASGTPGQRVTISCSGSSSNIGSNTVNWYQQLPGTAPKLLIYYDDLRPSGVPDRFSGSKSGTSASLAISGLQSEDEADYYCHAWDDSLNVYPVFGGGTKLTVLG
# B11: TPP-23375 (antibody, human IgG4 S228P, lambda, V domains shown)
# VH: B2 VH with S30Y
# VL: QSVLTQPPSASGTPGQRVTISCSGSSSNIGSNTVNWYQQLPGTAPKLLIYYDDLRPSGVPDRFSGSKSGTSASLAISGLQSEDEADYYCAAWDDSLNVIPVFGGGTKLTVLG
# B12: TPP-30788 (antibody, human IgG1, kappa, V domains shown)
# VH: EVQLVESGGGLVQPGGSLRLSCAASGFTFSSYYMSWVRQAPGKGLEWVSTIIKSGGYAYYPDSVKDRFTISRDNSKNTLYLQMSSLRAEDTAVYYCVRGGQGAMDYWGQGTTVTVSS
# VL: EIVLTQSPATLSLSPGERATLSCRASQSIGDYLHWYQQKPGQAPRLLIKYASQSISGIPARFSGSGSGTDFTLTITSLEPEDFAVYYCQQGYSFPYTFGGGTKLEIKR
# notes: prior art, WO 2020/225400; also called BI clone I; Böhringer (BI) Clone I
# B13: TPP-30789 (antibody, human IgG1, kappa, V domains shown)
# VH: B12 VH with T28P
# VL: B12 VL
# notes: prior art, WO 2020/225400; also called BI clone II; Böhringer (BI) Clone II
# B14: TPP-30790 (antibody, human IgG1, kappa, V domains shown)
# VH: B12 VH with P14L, S84N, R98K
# VL: B12 VL with K49Y, T76S
# notes: prior art, WO 2020/225400; also called BI clone III; Böhringer (BI) Clone III
# B15: TPP-30791 (antibody, human IgG1, kappa, V domains shown)
# VH: B12 VH with V12L, P14L, Y80N, S84N, R98K
# VL: B12 VL with T76S
# notes: prior art, WO 2020/225400; also called BI clone IV; Böhringer (BI) Clone IV
# B16: TPP-11489 (antibody, human IgG1, lambda)
# heavy: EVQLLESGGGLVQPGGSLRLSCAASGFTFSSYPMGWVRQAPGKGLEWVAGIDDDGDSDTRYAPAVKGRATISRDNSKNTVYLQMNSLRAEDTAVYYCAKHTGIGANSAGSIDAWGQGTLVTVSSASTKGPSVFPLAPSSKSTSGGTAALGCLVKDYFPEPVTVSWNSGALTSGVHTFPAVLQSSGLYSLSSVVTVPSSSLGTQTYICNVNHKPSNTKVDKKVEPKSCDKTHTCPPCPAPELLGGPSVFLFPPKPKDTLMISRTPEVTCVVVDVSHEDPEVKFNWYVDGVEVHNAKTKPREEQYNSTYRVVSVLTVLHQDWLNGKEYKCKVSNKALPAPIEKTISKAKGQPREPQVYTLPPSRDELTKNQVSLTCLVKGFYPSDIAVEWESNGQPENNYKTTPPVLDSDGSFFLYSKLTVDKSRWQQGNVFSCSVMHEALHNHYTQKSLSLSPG
# light: SYELTQPPSVSVSPGQTARITCSGGGSYTGSYYYGWYQQKPGQAPVTVIYYNNKRPSDIPERFSGSLSGTTNTLTISGVQAEDEADYYCGSADNSGDAFGTGTKVTVLGQPKAAPSVTLFPPSSEELQANKATLVCLISDFYPGAVTVAWKADSSPVKAGVETTTPSKQSNNKYAASSYLSLTPEQWKSHRSYSCQVTHEGSTVEKTVAPTECS
# notes: human IgG1; also called Chiome; Chiome Prior Art (hIgG1)
# Target: Human Semaphorin3A-Fc (R&D Systems), TPP-13211 (human)
# Sequence (chain, as listed by the source limits assumed): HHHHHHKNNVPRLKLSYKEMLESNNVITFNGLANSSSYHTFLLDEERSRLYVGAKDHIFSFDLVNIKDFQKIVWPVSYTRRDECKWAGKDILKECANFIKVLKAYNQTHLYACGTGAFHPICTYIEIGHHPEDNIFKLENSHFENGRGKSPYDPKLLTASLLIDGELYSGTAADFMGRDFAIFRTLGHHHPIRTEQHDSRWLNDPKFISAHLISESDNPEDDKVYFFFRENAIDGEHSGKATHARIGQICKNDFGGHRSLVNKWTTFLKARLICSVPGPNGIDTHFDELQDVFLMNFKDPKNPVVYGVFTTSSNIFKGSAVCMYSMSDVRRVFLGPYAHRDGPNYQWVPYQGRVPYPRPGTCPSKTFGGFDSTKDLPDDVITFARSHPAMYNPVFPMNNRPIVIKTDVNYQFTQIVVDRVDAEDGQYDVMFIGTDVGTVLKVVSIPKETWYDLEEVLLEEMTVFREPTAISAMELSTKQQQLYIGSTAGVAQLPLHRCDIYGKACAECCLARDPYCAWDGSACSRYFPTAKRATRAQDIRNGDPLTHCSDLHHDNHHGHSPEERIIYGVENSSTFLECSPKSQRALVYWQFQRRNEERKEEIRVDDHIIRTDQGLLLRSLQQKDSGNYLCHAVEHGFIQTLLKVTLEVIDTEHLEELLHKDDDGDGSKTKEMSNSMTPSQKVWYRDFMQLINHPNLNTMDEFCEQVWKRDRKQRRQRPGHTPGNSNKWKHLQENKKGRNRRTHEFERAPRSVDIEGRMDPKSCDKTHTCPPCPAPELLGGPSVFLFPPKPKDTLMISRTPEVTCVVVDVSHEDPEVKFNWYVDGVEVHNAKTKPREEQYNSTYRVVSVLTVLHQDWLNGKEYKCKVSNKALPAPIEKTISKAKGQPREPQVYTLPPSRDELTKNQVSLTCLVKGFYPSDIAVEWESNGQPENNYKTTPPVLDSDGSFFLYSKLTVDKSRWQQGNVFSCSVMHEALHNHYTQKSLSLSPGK
# Assay: cell-based or functional assay
row,Binder,"EC50 (nM), GCC assay"
1,B1,52.7 nM
2,B2,2.12 nM
3,B3,2.4 nM
4,B4,2.24 nM
5,B5,2.19 nM
6,B6,4.33 nM
7,B7,8.13 nM

# Target: T1, human wild-type Sema3A of SEQ ID NO: …
# Assay: cell-based or functional assay
row,Binder,"EC50 (pM), HUVEC repulsion assay"
1,B2,170 pM
2,B3,80 pM
3,B4,120 pM
4,B8,180 pM
5,B9,113 pM
6,B10,180 pM
7,B5,77 pM
8,B11,123 pM
9,B6,800 pM

# Target: T2, Cyno Semaphorin3A-Sema Domain, TPP-19122
# Assay: SPR, captured antibody, Sema3A domain analyte
# Experimental: (§1) To assess the binding activity of anti-Sema3A antibodies binding assays were conducted using surface plasmon resonance (SPR). Binding assays were performed on a Biacore T200 instrument (Cytiva) at 25° C. using assay buffer HBS P+, 300 mM NaCl, 0.75 mM CaCl₂, 2.5 mM MgCl₂, 1 mg/ml BSA, 0.05% NaN₃. Antibodies were captured via anti-human Fc IgGs (“Human antibody capture kit”, Order No. BR100839, Cytiva) covalently amine coupled to a Series S CM5 sensor chip (Cytiva). The amine coupling was carried out according to the manufacturer's instructions using 1-ethyl-3-(3-dimethylaminopropyl) carbodiimide hydrochloride (EDC), N-hydroxysuccinimide (NHS) and ethanolamine HCl, pH 8.5 (“Amine Coupling Kit” BR-1000-50, Cytiva.). Human, mouse, cynomolgus, rat, dog and pig monovalent Sema3A domain were used as analytes in a concentration series from 0.024-3.125 nM in multi cycle kinetics mode. The sensor surface was regenerated with glycine pH 2.0 after each antigen injection. Obtained sensorgrams were double referenced (subtraction of reference flow cell signal and buffer injection) and were fitted to a 1:1 Langmuir binding model using the Biacore T200 Evaluation software obtaining the experimental fitted RMax value. To calculate the binding activity first the theoretical RMax needs to be calculated according to equation 1: […]
# (§2) Binding activity was determined by dividing the experimental determined RMax by the theoretical calculated RMax according to equation 2: […]
row,Binder,Binding Activity [%]
1,B1,53%
2,B3,106%
3,B6,139%
4,B12,107%
5,B13,103%
6,B14,92%
7,B15,107%
8,B16,13%
9,B7,104%

# Target: T3, Rat Semaphorin3A-Sema Domain, TPP-19120
# Assay: SPR, captured antibody, Sema3A domain analyte
# Experimental: as §1, §2
row,Binder,Binding Activity [%]
1,B1,56%
2,B3,108%
3,B6,113%
4,B12,109%
5,B13,104%
6,B14,94%
7,B15,109%
8,B16,31%
9,B7,94%
